The text below walks through data of PMC9813358, “Insights into the GSDMB-mediated cellular lysis and its targeting by IpaH7.8” (Nature Communications, 2023).

B1: IpaH7.8 protein (residues 23–565) [Shigella flexneri] / GSDMB (residues 1-411) [human] (parent complex)
chain 1: SNEHYLRILTEWEKNSSPGEERGIAFNRLSQCFQNQEAVLNLSDLNLTSLPELPKHISALIVENNKLTSLPKLPAFLKELNADNNRLSVIPELPESLTTLSVRSNQLENLPVLPNHLTSLFVENNRLYNLPALPEKLKFLHVYYNRLTTLPDLPDKLEILCAQRNNLVTFPQFSDRNNIRQKEYYFHFNQITTLPESFSQLDSSYRINISGNPLSTRVLQSLQRLTSSPDYHGPQIYFSMSDGQQNTLHRPLADAVTAWFPENKQSDVSQIWHAFEHEEHANTFSAFLDRLSDTVSARNTSGFREQVAAWLEKLSASAELRQQSFAVAADATESCEDRVALTWNNLRKTLLVHQASEGLFDNDTGALLSLGREMFRLEILEDIARDKVRTLHFVDEIEVYLAFQTMLAEKLQLSTAVKEMRFYGVSGVTANDLRTAEAMVRSREENEFTDWFSLWGPWHAVLKRTEADRWAQAEEQKYEMLENEYSQRVADRLKASGLSGDADAEREAGAQVMRETEQQIYRQLTDEVLALRLSENGSRLHHS
chain 2: MFSVFEEITRIVVKEMDAGGDMIAVRSLVDADRFRCFHLVGEKRTFFGCRHYTTGLTLMDILDTDGDKWLDELDSGLQGQKAEFQILDNVDSTGELIVRLPKEITISGSFQGFHHQKIKISENRISQQYLATLENRKLKRELPFSFRSINTRENLYLVTETLETVKEETLKSDRQYKFWSQISQGHLSYKHKGQREVTIPPNRVLSYRVKQLVFPNKETMSAGLDIHFRGKTKSFPEGKSLGSEDSRNMKEKLEDMESVLKDLTEEKRKDVLNSLAKCLGKEDIRQDLEQRVSEVLISGELHMEDPDKPLLSSLFNAAGVLVEARAKAILDFLDALLELSEEQQFVAEALEKGTLPLLKDQVKSVMEQNWDELASSPPDMDYDPEARILCALYVVVSILLELAEGPTSVSS

Broadly, the Kd is the equilibrium constant for the complex coming apart.

Variants of B1 are the subject of this test. Description: ITC; parent: 94 nM. (Isothermal titration calorimetry measures the heat released or taken up as one component is titrated into another.)
Take chain 1 N124A: the Kd is 360 nM.
